Measured values taken from US20130078247A1 (Boehringer Ingelheim, published 2013).
Where a chain is given by its changes, count along the chain named.

T1: human DLL1 (human, UniProt O00548 18-545, limits assumed)
T1 construct: also called hDLL1; rhDLL1
T1 sequence (looked up): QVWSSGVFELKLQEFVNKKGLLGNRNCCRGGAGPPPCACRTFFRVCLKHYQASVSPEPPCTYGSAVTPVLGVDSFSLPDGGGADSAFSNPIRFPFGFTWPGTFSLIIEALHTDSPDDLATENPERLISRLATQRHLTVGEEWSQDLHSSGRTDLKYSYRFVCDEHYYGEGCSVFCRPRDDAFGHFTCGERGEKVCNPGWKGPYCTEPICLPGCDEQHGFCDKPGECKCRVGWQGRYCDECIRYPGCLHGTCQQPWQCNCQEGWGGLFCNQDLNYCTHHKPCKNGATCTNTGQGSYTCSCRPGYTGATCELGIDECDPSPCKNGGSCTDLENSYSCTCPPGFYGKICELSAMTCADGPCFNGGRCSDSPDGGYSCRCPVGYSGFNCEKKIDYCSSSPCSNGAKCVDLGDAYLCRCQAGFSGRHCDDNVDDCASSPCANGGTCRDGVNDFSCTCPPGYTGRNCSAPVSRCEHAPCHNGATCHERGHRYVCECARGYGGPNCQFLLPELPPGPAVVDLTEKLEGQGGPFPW

B1: DLLBII015 (VHH)
VHH: EVQLVESGGGLVQPGGSLRLSCAASGFTIGSYDMSWVRRSPGKGPEWVSAINSGGGSTYYADYVKGRFTISRDNAKNTLYLQMNSLKPEDTAVYYCAADRYIWARQGEYWGAYAYDYWGQGTQVTVSS
notes: not shown: C-terminal c-myc tag and (His)6 tag
B2: DLLBII5B11 (VHH)
VHH: EVQLVESGGGLVQPGGSLRLSCAISGFTLDLHVIGWLRQAPGKEREWVSCISSSDGSTYYADSVKGRFTISRDNAKNTVYLQMNSLKPEDTAVYYCAAPWDSWYCGIGNDYDYWGQGTQVTVSS
notes: also called DLLBII05B11; not shown: C-terminal c-myc and His6 tags
B3: DLLBII8A09 (VHH)
VHH: EVQLVESGGGLVQPGGSLRLSCAASGFTLDYYNIGWFRQAPGKEREWVSCINSSDGSTYYADSVKGRFTISRDNAKNTVYLQMNSLKPEDTAVYYCAAPFAYYSNLCGVNGYDYWGQGTQVTVSS
notes: also called DLLBII08A09; not shown: C-terminal c-myc and His6 tags
B4: DLLBII19F04 (VHH)
VHH: EVQLVESGGGLVQAEGSLRLSCAASGSTFSTYAMAWYRQAPGKQRELVAGISFDGSTHYAESVKGRFTISRDDAKNTVSLQMNSLKPEDAAVYYCYSVHPSTGFGSWGQGTQVTVSS
notes: also called DLLBII19F4; not shown: C-terminal c-myc and His6 tags
B5: DLLBII6B11 (VHH)
VHH: EVQLVESEGGLVQAGGSLRLSCAASGSTFSSYAMGWYRQAPGKQRELVAVISNGGITNYPNSVKGRFTISRDNAKNTVYLQMNSLKPEDTAVYYCFYSGSYYYPTDVHEYDYWGQGTQVTVSS
notes: also called DLLBII06B11; not shown: C-terminal c-myc and His6 tags
B6: DLLBII17B03 (VHH)
VHH: EVQLVESGGGLVQPGGSLRLSCAASGFTFENYALGWFRQAPGKEREWVSCISSSDGTTYYADSVKGRFTISRDNVKNTVYLQMNRLKPEDTAIYYCALSLGSSWCAYDYWGQGTQVTVSS
notes: also called DLLBII17B3; not shown: C-terminal c-myc and His6 tags
B7: DLLBII8C11 (VHH)
VHH: EVQLVESGGGLVQAGGSLRLSCAASGFTFDDYAIGWFRQAPGKEREGVSCISSHDRTTYYADSVKGRFTISSDNAKNTVYLQMNSLKPEDTAVYYCAADPLVCGYNDPRLADYWGQGTQVTVSS
notes: also called DLLBII08C11; not shown: C-terminal c-myc and His6 tags
B8: DLLBII7B05 (VHH)
VHH: EVQLVESGGGLVQAGGSLRLSCAASGFALDYYAVGWFRQAPGKEREGVSCISSRGGSTFYADSVKGRFTTSRNNAKNTVYLQMNSLKPEDTAVYYCAAHPLQNCCGGSAYASPEAVYEYWGQGTQVTVSS
notes: also called DLLBII7B5; DLLBII07B05; not shown: C-terminal c-myc and His6 tags
B9: DLLBII28B06 (VHH)
VHH: EVQLVESGGGLVQAGGSLRLSCAASGSTFSTYAMGWYRQDPGNQRELVAAISSDGSTHYADSVKGRFTISRDNAKNTVYLQMNSLKPEDTAVYYCYAPVKVAGLEYDYWGQGTQVTVSS
notes: also called DLLBII28B6; not shown: C-terminal c-myc and His6 tags
B10: DLLBII19F12 (VHH)
VHH: EVQLVESGGGLVQAGGSLRLSCTASGSTFTSYAMGWYRQAPGKQRELVAAISSDDSTYYADCVKGRFTISRDNAKNTVYLQMNSLKPEDTAVYYCNAPHSDYDEEAPSDFGSWGQGTQVTVSS
notes: not shown: C-terminal c-myc and His6 tags
B11: DLLBII33C05 (VHH)
VHH: EVQLVESGGGLVQAGGSLRLSCAASGFTLDNYVIGWFRQAPGKEREEVSCISSSGGSTDYLDSVKGRFTISRDNAKNTVYLQMNSLKPEDTAVYYCAADSLPCYYDKMVYDYWGQGTQVTVSS
notes: also called DLLBII33C5; not shown: C-terminal c-myc and His6 tags
B12: DLLBII129G09 (VHH)
VHH: EVQLVESGGGLVQAGGSLRLSCAASGRTFSSYAMAWYRQAPGKEREYVAAIRWSGETAYYADSVQGRFTISRDNAKNTVYLQMNSLKPEDTAVYYCANRAPDTRLEPYLYDHWGQGTQVTVSS
B13: DLLBII130F06 (VHH)
VHH: B12 VHH with E56G, E106A, L109E, H112Y
notes: as for B1
B14: DLLBII130E03 (VHH)
VHH: B12 VHH with E56G, L109E
B15: DLLBII130B04 (VHH)
VHH: B12 VHH with Y37F, E56G, E106R
B16: DLLBII129G10 (VHH)
VHH: B12 VHH with E56G, G66S, L109E
B17: DLLBII129H02 (VHH)
VHH: B12 VHH with E56G, E106R, L109E, H112Y
B18: DLLBII130D06 (VHH)
VHH: B12 VHH with A23S
B19: DLLBII129H04 (VHH)
VHH: B12 VHH with G8R, Y37F, E56G
B20: DLLBII130B03 (VHH)
VHH: B12 VHH with E56G, E106A, H112Y
notes: as for B1
B21: DLLBII129H07 (VHH)
VHH: B12 VHH with E56G, L109E, H112Y
notes: as for B1
B22: DLLBII130B02 (VHH)
VHH: B12 VHH with Y37F, E56G, N84Y, E106A
B23: DLLBII130A05 (VHH)
VHH: B12 VHH with E56G, E106G
B24: DLLBII129H05 (VHH)
VHH: B12 VHH with Q39L, E56G, E106G, H112Y

The binders below were run against T1, human DLL1 (assay: binding ELISA, coated hDLL1).
Description: (§1) Absence of binding to homologous ligands human DLL1 and human Jagged-1 is assessed via solid phase binding assay (ELISA). In brief, human DLL1 (Alexis, San Diego, Calif., USA) and human Jagged-1 (Alexis, San Diego, Calif., USA) are coated overnight at 4° C. at 1 μg/mL in a 96-well MaxiSorp plate (Nunc, Wiesbaden, Germany). Wells are blocked with a casein solution (1% in PBS). VHHs are applied as dilution series and binding is detected using a mouse anti-myc (Roche) and an anti-mouse-AP conjugate (Sigma, St. Louis, Mo., USA).
B1: no binding.

These binders were tested against T2, human Jagged-1 (human, UniProt P78504 34-1067, limits assumed) (assay: binding ELISA, coated hJagged-1).
T2 construct: also called hJag-1; hJAG1
Description: as §1
B1: no binding.

What follows are binders tested against T3, recombinant human DLL4 extracellular domain, C-terminally His-tagged (R&D Systems) (human, UniProt Q9NR61 25-522, biotinylated in the competition assays (sites not given)) (assay: periplasmic extract; hDLL4 ELISA).
T3 construct: also called rhDLL4; hDLL4; not shown: C-terminal His tag
T3 sequence (Q9NR61 25-522): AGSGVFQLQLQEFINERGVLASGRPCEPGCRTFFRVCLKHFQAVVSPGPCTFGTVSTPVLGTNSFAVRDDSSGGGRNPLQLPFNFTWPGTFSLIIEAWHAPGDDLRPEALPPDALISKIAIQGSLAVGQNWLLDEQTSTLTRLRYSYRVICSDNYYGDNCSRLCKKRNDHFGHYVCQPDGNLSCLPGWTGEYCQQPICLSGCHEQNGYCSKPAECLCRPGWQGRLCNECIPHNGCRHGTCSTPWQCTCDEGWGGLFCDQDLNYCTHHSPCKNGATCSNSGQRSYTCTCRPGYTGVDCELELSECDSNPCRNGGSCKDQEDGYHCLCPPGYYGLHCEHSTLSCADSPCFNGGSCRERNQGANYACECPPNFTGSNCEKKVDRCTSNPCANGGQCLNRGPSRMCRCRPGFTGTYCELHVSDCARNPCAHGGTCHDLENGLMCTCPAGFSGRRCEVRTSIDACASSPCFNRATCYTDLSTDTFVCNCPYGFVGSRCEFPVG
With B2 the “% inhibition” value was 98%. With B3 the “% inhibition” value was 96%. In the case of B4, the “% inhibition” value is reported as 98%. In the case of B5, the “% inhibition” value is reported as 98%. For B6, the “% inhibition” value was 76%. B7 was tested, and the “% inhibition” value was 57%. For B8, the “% inhibition” value was 84%. For B9, the “% inhibition” value was 23%. With B10 the “% inhibition” value was 98%. B11 was tested, and the “% inhibition” value was 86%.

These binders were tested against T3, recombinant human DLL4 extracellular … (assay: periplasmic extract; hDLL4/hNotch1 AlphaScreen).
Description: To this mixture, the acceptor beads and the streptavidin donor beads are added and further incubated for 1 hour at room temperature. Fluorescence is measured by reading plates on the Envision Multilabel Plate reader (Perkin Elmer, Waltham, Mass., USA) using an excitation wavelength of 680 nm and an emission wavelength of 520 nm.
For B4, the “% inhibition” value was 95%. With B6 the “% inhibition” value was 77%. For B9, the “% inhibition” value was 54%. With B10 the “% inhibition” value was 98%. With B11 the “% inhibition” value was 75%.

The binders below were run against T4, recombinant human DLL4 (human, UniProt Q9NR61 25-522) (assay: ProteOn off-rate screen, periplasmic extract, hDLL4 on chip).
T4 construct: R&D Systems C-terminally His-tagged extracellular domain; also called rhDLL4; hDLL4; not shown: C-terminal His tag
T4 sequence (Q9NR61 25-522): as above
Description: (§2) In a first cycle, amino acid substitutions are introduced randomly in both framework (FW) and complementary determining regions (CDR) using the error-prone PCR method. […] After a polish step, PCR products are inserted via unique restriction sites into a vector designed to facilitate phage display of the VHH library. […] No selections on murine DLL4 are included as (conservation of) cross-reactivity is assessed at the screening level. Individual mutants are produced as recombinant protein using an expression vector derived from pUC119, which contains the LacZ promoter, a resistance gene for ampicillin, a multiple cloning site and an ompA leader sequence (pAX50). E. coli TG1 cells are transformed with the expression vector library and plated on agar plates (LB+Amp+2% glucose). Single colonies are picked from the agar plates and grown in 1 mL 96-deep-well plates. VHH expression is induced by adding IPTG (1 mM). Periplasmic extracts (in a volume of ˜80 uL) are prepared according to standard methods and screened for binding to recombinant human and mouse DII4 in a ProteOn (BioRad, Hercules, Calif., USA) off-rate assay. […] Periplasmic extract of affinity matured clones is diluted 1/10 and injected across the “analyte channels” A1-A6. An average off-rate is calculated of the wild type clones present in the plate and served as a reference to calculate off-rate improvements.
B12 was tested, and the “fold (off-rate improvement over DLLBII101G08)” value (“fold” below) was 26 fold. With B13 the “fold” value was 27 fold. For B14, the “fold” value was 24 fold. For B15, the “fold” value was 22 fold. In the case of B16, the “fold” value is reported as 31 fold. B17 was tested, and the “fold” value was 23 fold. In the case of B18, the “fold” value is reported as 26 fold. With B19 the “fold” value was 33 fold. For B20, the “fold” value was 27 fold. In the case of B21, the “fold” value is reported as 30 fold. With B22 the “fold” value was 23 fold. B23 was tested, and the “fold” value was 24 fold. With B24 the “fold” value was 24 fold.

Each binder was assayed against T5, recombinant mouse DLL4 (mouse, UniProt Q9JI71 27-532) (assay: ProteOn off-rate screen, periplasmic extract, mDLL4 on chip).
T5 construct: extracellular domain; also called rmDLL4; mDLL4; not shown: C-terminal His tag
T5 sequence (Q9JI71 27-532): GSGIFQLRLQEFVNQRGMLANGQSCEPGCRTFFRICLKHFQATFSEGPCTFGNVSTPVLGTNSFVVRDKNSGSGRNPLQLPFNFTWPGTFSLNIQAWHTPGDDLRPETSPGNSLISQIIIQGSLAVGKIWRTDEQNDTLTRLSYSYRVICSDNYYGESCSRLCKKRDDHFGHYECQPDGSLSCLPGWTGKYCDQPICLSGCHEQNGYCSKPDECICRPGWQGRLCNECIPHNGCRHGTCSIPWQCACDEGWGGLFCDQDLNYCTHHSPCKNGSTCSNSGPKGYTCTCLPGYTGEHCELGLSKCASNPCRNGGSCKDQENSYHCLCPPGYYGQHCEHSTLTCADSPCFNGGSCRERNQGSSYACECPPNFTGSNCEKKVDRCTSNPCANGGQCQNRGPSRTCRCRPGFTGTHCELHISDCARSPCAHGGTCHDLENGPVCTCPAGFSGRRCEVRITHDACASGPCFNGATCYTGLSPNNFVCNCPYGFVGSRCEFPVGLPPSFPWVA
Description: as §2
For B12, the “fold” value was 20 fold. B13 was tested, and the “fold” value was 19 fold. For B14, the “fold” value was 18 fold. For B15, the “fold” value was 17 fold. For B16, the “fold” value was 26 fold. With B17 the “fold” value was 19 fold. For B18, the “fold” value was 16 fold. B19 was tested, and the “fold” value was 27 fold. With B20 the “fold” value was 20 fold. With B21 the “fold” value was 27 fold. B22 was tested, and the “fold” value was 17 fold. B23 was tested, and the “fold” value was 17 fold. In the case of B24, the “fold” value is reported as 19 fold.
